{
  "source": "paper PMC9290910",
  "about": "“Neuropilin‐1 is required for endothelial cell adhesion to soluble vascular endothelial growth factor receptor 1” (The Febs Journal, 2021)",
  "molecules": {"B1": {"name": "VEGFR‐1: Recombinant human VEGFR‐1/Fc (321‐FL‐050), R&D Systems (protein)", "chain": "SKLKDPELSLKGTQHIMQAGQTLHLQCRGEAAHKWSLPEMVSKESERLSITKSACGRNGKQFCSTLTLNTAQANHTGFYSCKYLAVPTSKKKETESAIYIFISDTGRPFVEMYSEIPEIIHMTEGRELVIPCRVTSPNITVTLKKFPLDTLIPDGKRIIWDSRKGFIISNATYKEIGLLTCEATVNGHLYKTNYLTHRQTNTIIDVQISTPRPVKLLRGHTLVLNCTATTPLNTRVQMTWSYPDEKNKRASVRRRIDQSNSHANIFYSVLTIDKMQNKDKGLYTCRVRSGPSFKSVNTSVHIYDKAFITVKHRKQQVLETVAGKRSYRLSMKVKAFPSPEVVWLKDGLPATEKSARYLTRGYSLIIKDVTEEDAGNYTILLSIKQSNVFKNLTATLIVNVKPQIYEKAVSSFPDPALYPLGSRQILTCTAYGIPQPTIKWFWHPCNHNHSEARCDFCSNNEESFILDADSNMGNRIESITQRMAIIEGKNKMASTLVVADSRISGIYICIASNKVGTVGRNISFYITDVPNGFHVNLEKMPTEGEDLKLSCTVNKFLYRDVTWILLRTVNNRTMHYSISKQKMAITKEHSITLNLTIMNVSLQDSGTYACRARNVYTGEEILQKKEITIRDQEAPYLLRNLSDHTVAISSSTTLDCHANGVPEPQITWFKNNHKIQQEPGIILGPGSSTLFIERVTEEDEGVYHCKATNQKGSVESSAYLTVQGTSDKSNLE", "modifications": "left off: Fc, end not stated, kept", "notes": "Recombinant human VEGFR‐1/Fc (321‐FL‐050), R&D Systems"}},
  "key": {"NRP‐1": {"system": "NRP‐1", "experiment": "SPR, VEGFR‐1 binding to immobilized NRP‐1", "design": "species or system human", "details": "NRP‐1 immobilized, VEGFR‐1 0.6-5 nM, 1:1 Langmuir model", "protocol": "Fig. 2 Flt2‐11 peptide inhibits NRP‐1 binding to VEGFR‐1. SPR analysis of the interaction between VEGFR‐1 and NRP‐1 in peptide absence (A), or presence of Flt2‐11 peptide (B) or scrambled Flt2‐11 peptide (C). NRP‐1 is immobilized on the sensor chip. (A) VEGFR‐1 is injected at different concentrations (from bottom to top: 0.6 nM, cyan; 1 nM, red; 2 nM, green; 2.5 nM, blue; and 5 nM, black). […] (B) VEGFR‐1 is injected at 5 nM together with peptide Flt2‐11 at different concentrations (from top to bottom: 0, black; 5 nM, blue; 15 nM, green; 45 nM, red; 100 nM, cyan; and 800 nM, magenta). […] (C) VEGFR‐1 is injected at 5 nM together with ‘scrambled’ Flt2‐11 peptide at different concentrations (from top to bottom: 0, black; 0.5 μM, blue; 950 μM, geen; and […], red).\nSPR experiments were carried out using a BIACORE X system (Biacore AB, Uppsala, Sweden). […] The reaction was carried out in 20 mM sodium acetate at pH 5.0, which is about 2 points below the theoretical NRP‐1 isoelectric point calculated using the program pI‐tool. […]\nRU express the mass concentration‐dependent changes in the observed SPR signal, that is, the refractive index on the sensor chip surface. Changes in this signal are determined by the interaction between the immobilized protein (i.e., either NRP‐1 or VEGFR‐1) with the analyte protein (i.e., VEGFR‐1/Fc, α5β1 integrin or semaphorin 3A). […]"}, "[1]": {"system": "α5β1 integrin signalling in ECs", "design": "method as in PMID 24174428", "details": "phosphorylation of focal adhesion kinase or Shc; cited from earlier work"}},
  "data": [
    {"molecule": "B1", "values": [
      {"measurement": "k off", "setting": "NRP‐1", "result": 0.0003, "unit": "s⁻¹"},
      {"measurement": "k on", "setting": "NRP‐1", "result": 12000, "unit": "M⁻¹ s⁻¹"},
      {"measurement": "activation of canonical α5β1 integrin signalling by EC adhesion to sVEGFR‐1", "setting": "[1]", "result": "does not activate canonical α5β1 integrin signalling"}
    ]}
  ]
}
